Measurements as given in the supplement of paper PMC11780869.

System: Bacillus subtilis
Test: cleaved RNA product abundance (RNA/gDNA barcode ratio) relative to median wild-type variant (ratio to wild type); higher = more accumulation of the downstream cleavage product
Settings: cleavage site: cggR-gapA (positions -7 to +36 mutated)
How it was run: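 Reporter mRNAs based on truncated aprE or tetM carried barcoded, mutagenized RNase Y cleavage-site windows built from oligos with a 9% error rate and were integrated into the B. subtilis chromosome. Cultures grew in LB at 37°C from OD600 0.0003 to 0.3. Cleaved RNA was gel-selected, reverse transcribed and barcode-sequenced together with genomic DNA barcodes, and UMIs were collapsed. Cleaved product abundance is the per-construct ratio of RNA to gDNA barcodes, scaled to the median of constructs carrying the unmutated site.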

[1] = experiment (reporter, strain, medium): exp 4a: truncated aprE reporter, strain BJT201 with 2% xylose (RNase J1 expressed)
[2] = experiment (reporter, strain, medium): exp 2b: truncated aprE reporter, strain BJT200
[3] = experiment (reporter, strain, medium): exp 6: tetM reporter, strain 168

Sequence	cleaved RNA product abundance [1]	cleaved RNA product abundance [2]	cleaved RNA product abundance [3]
ACAGACGAAGGAGCCGCAAAGAAGTTATTAAGGGATGAATCATCCCTCAATATAAATAACTCTCACTTATTTAAA	0.573	–	–
ACAGACGAAGGAGCCGCAAAGAAGTTATTAAGGGATGAATCATCCCTCAATATAAATATCTCTCACTTATTTAAA	0.902	0.721	0.917
ACAGACGAAGGAGCCGCAAAGAAGTTATTAAGGGATGAATCATCCCTCAATTTAAATATCTCTCACTTATTTAAA	–	0.169	–
ACAGACGAAGGAGCCGCAAAGAAGTTATTAAGGGATGAATCATCCCTCACTATAAATATCTCTCACTTATTTAAA	0.22	–	–
ACAGACGAAGGAGCCGCAAAGAAGTTATTAAGGGATGAATCATCCCTTAATATAAATATCTCTCACTTATTTAAA	0.46	–	–
ACAGACGAAGGAGCCGCAAAGAAGTTATTAAGGGATGAATCATCTCTCAATATAAATATCTCTCACTTATTTAAA	0.595	–	–
ACAGACGAAGGAGCCGCAAAGAAGTTATTAAGGGATGAATCATGCCTCAATATAAATATCTCTCACTTATTTAAA	0.251	0.164	–
ACAGACGAAGGAGCCGCAAAGAAGTTATTAAGGGATGAATCTTCCCTCAATATAAATATCTCTCACTTATTTAAA	1.05	–	–
ACAGACGAAGGAGCCGCAAAGAAGTTATTAAGGGATGAATGATCCATCAATATAAATATCTCTCACTTATTTAAA	0.259	–	–
ACAGACGAAGGAGCCGCAAAGAAGTTATTAAGGGATGAATGATCCCACAATATAAATATCTCTCACTTATTTAAA	0.101	0.121	–
ACAGACGAAGGAGCCGCAAAGAAGTTATTAAGGGATGAATGATCCCTAAATATAAATATCTCTCACTTATTTAAA	0.488	–	–
ACAGACGAAGGAGCCGCAAAGAAGTTATTAAGGGATGAATGATCCCTCAAAATAAATATCTCTCACTTATTTAAA	0.149	0.14	–
ACAGACGAAGGAGCCGCAAAGAAGTTATTAAGGGATGAATGATCCCTCAATATAAAAATCTCTCACTTATTTAAA	0.651	–	–
ACAGACGAAGGAGCCGCAAAGAAGTTATTAAGGGATGAATGATCCCTCAATATAAATATCTCTCACTTATTTAAA	0.699	0.466	0.63
ACAGACGAAGGAGCCGCAAAGAAGTTATTAAGGGATGAATGATCCCTCAATCTAAATATCTCTCACTTATTTAAA	0.0934	–	–
ACAGACGAAGGAGCCGCAAAGAAGTTATTAAGGGATGAATGATCCCTCCATATAAATATCTCTCACTTATTTAAA	–	0.123	–
ACAGACGAAGGAGCCGCAAAGAAGTTATTAAGGGATGAATGATCCCTGAATATAAATATCTCTCACTTATTTAAA	0.383	–	–
ACAGACGAAGGAGCCGCAAAGAAGTTATTAAGGGATGAATGATCCTTCAATATAAATATCTCTCACTTATTTAAA	0.258	–	–
ACAGACGAAGGAGCCGCAAAGAAGTTATTAAGGGATGAATTAACCCTCAATATAAATATCTCTCACTTATTTAAA	0.492	–	–
ACAGACGAAGGAGCCGCAAAGAAGTTATTAAGGGATGAATTATACCTCAATATAAATATCTCTCACTTATTTAAA	0.162	0.139	–
ACAGACGAAGGAGCCGCAAAGAAGTTATTAAGGGATGAATTATCACTCAATATAAATATCTCTCACTTATTTAAA	0.178	–	–
ACAGACGAAGGAGCCGCAAAGAAGTTATTAAGGGATGAATTATCCATCAATATAAATATCTCTCACTTATTTAAA	0.144	0.163	–
ACAGACGAAGGAGCCGCAAAGAAGTTATTAAGGGATGAATTATCCCACAATATAAATATCTCTCACTTATTTAAA	0.319	–	–
ACAGACGAAGGAGCCGCAAAGAAGTTATTAAGGGATGAATTATCCCTAAATATAAATATCTCTCACTTATTTAAA	0.433	0.399	–
ACAGACGAAGGAGCCGCAAAGAAGTTATTAAGGGATGAATTATCCCTCAACATAAATATCTCTCACTTATTTAAA	0.284	0.179	–
